According to article PMC12289001, “Functional characterization of DPP4 and FcRn as receptor and coreceptor for classical human astroviruses in Caco-2 cells” (PLOS Pathogens, 2025):

Target: T1, recombinant FcRn (FCGRT ectodomain with β-2-Microglobulin), expressed in CHO-S cells (human, UniProt P55899 24-297; P61769 21-119)
T1 construct: signal peptide in the construct; ectodomain of human FCGRT (FcRn heavy chain), Met1-Ser297, followed by a C-terminal thrombin cleavage site before the tags; β-2-Microglobulin, Met1-Met119; also called neonatal Fc receptor; source: CHO-S cells, electroporated with both plasmids, purified from the media (StrepTrap XT)
T1 sequence (P55899 24-297, chain 1 of 2): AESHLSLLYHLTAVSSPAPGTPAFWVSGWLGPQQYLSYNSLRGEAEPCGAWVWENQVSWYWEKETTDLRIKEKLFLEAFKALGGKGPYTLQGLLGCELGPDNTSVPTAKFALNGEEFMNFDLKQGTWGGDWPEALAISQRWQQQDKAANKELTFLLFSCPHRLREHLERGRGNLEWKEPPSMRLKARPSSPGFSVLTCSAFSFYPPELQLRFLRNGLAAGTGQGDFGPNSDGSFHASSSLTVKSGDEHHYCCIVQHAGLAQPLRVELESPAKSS
T1 sequence (P61769 21-119, chain 2 of 2): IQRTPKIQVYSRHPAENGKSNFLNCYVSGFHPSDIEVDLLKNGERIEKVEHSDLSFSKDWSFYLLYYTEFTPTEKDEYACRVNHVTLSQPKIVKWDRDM
Experiment: BLI; HIS1K biosensors loaded with HAstV-8 spike (6 μg/ml); FcRn in solution, 1,000 to 62.5 nM (mutant spike: 2,000 nM only); 0.1M sodium phosphate, 150 mM NaCl, 0.05% Tween-20, pH 7.0; 25 °C; 1:1 binding model; triplicate
Conditions: both partners purified

B1: recombinant WT HAstV-8 capsid spike (domain or fragment)
chain: GEQFRVLLTVGPPMAPNTANSQNWVNKTIVPPENQYTVKIGIDLEHYTTMQGFTPVESVSWYTADFQPSDEPSPIPGLYARVNNTKKADVYGVQQFKSSHTNNRHQITSVFLVRVTTSFQVINYTSYFIRGAESGSNVSNLKIRDQTYHTPLQFTQGKWYLLTSTVMHDGPTSSGWVWMNQELTNNIAYRVDPGMMYLITPPPAASQLYFELHTVLPQA
modifications: Wild-type spike. Limits are not printed: about 429-647 is taken by convention from related HAstV spike constructs and is close to the VP25 feature 424-648. The C-terminal thrombin site and His10 tag …
- Kd: ~280 nM
